The source of these data is US20050221287A1 (CONSEJO SUPERIOR DE INVESTIGACIONES CIENTIFICAS PHARMACIA …, published 2005).

Assay [1] deals with STAT3 (human, UniProt P40763 2-770, limits assumed). The experiment in a line: association with CXCR4 in CXCL12-stimulated IM-9 cells.
Assay [2] has as its target T1, JAK1 (human, UniProt P23458 1-1154).
T1 construct: Endogenous protein of IM-9 cell lysates
Described as above.

Assay [3] concerns the target STAT2 (human, UniProt P52630 1-851). Described as above.
Assay [4] addresses T2, STAT1 (human, UniProt P42224 2-750, limits assumed).
T2 sequence (looked up): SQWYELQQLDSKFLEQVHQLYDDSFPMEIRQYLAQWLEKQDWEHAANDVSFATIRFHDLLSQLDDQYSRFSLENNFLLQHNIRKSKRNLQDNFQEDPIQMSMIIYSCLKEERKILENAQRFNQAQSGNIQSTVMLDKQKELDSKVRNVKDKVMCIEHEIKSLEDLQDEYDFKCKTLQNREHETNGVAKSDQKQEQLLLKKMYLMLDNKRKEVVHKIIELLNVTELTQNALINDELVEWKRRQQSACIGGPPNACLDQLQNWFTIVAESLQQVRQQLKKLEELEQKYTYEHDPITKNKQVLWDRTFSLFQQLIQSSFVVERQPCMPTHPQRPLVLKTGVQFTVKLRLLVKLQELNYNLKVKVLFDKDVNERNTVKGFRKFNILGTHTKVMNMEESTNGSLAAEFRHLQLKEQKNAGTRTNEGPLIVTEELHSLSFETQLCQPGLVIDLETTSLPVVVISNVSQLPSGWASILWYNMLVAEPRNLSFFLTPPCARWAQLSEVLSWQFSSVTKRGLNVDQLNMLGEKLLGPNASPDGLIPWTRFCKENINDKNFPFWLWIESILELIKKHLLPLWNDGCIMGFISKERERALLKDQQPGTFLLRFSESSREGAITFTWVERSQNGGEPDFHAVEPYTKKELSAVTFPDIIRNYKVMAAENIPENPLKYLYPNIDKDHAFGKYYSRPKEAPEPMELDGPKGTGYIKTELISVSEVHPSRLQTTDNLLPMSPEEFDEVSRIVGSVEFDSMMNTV
The description is as above.

The target of assay [5] is T3, STAT6 (human, UniProt P42226 2-847).
T3 sequence (looked up): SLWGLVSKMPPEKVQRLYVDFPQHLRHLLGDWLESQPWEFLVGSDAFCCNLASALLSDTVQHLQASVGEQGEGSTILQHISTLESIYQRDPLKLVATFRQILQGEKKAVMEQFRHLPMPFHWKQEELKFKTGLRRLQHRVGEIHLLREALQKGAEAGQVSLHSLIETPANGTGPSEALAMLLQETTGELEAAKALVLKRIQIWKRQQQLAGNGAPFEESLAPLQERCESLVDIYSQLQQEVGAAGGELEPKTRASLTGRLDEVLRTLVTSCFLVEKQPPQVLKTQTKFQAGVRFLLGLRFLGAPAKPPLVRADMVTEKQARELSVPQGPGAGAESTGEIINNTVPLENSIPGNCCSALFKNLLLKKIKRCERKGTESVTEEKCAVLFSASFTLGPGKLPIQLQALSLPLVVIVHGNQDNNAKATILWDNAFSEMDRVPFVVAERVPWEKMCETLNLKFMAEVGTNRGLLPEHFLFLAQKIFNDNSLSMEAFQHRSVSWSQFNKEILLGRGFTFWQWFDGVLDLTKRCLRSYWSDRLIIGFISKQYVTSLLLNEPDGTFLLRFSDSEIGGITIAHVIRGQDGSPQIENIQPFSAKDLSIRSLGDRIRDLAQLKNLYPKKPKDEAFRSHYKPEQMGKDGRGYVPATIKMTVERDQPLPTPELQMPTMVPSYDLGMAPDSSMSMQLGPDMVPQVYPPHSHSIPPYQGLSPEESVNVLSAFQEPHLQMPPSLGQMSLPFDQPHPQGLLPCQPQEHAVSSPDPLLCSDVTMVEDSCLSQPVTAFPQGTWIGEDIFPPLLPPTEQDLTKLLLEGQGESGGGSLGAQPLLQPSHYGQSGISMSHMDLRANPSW
Kind of assay: association with CXCR4 in CXCL12-stimulated IM-9 cells (data not shown).

Assay [6] concerns the target T4, STAT4 (human, UniProt Q14765 1-748).
T4 sequence (looked up): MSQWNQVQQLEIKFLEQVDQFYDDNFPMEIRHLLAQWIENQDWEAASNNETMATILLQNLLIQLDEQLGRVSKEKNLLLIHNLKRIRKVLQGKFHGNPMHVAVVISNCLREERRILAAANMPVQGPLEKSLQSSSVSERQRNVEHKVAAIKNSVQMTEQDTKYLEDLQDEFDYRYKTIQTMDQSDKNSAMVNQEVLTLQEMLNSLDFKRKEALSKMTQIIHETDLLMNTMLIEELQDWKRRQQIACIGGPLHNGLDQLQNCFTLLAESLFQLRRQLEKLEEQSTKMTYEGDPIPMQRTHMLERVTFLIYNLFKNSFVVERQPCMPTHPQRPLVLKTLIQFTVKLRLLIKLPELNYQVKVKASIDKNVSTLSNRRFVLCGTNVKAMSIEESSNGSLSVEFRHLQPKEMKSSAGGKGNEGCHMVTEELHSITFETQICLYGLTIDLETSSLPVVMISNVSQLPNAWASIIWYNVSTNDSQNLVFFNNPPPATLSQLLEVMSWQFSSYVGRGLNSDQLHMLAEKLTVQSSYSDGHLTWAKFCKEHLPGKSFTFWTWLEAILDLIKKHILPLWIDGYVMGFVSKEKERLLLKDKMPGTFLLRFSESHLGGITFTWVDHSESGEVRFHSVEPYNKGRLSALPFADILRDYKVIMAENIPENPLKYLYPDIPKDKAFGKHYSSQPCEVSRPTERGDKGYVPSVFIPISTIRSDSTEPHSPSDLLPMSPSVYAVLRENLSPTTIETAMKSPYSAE
The assay is described as above.

STAT2, sequence (P52630 whole entry): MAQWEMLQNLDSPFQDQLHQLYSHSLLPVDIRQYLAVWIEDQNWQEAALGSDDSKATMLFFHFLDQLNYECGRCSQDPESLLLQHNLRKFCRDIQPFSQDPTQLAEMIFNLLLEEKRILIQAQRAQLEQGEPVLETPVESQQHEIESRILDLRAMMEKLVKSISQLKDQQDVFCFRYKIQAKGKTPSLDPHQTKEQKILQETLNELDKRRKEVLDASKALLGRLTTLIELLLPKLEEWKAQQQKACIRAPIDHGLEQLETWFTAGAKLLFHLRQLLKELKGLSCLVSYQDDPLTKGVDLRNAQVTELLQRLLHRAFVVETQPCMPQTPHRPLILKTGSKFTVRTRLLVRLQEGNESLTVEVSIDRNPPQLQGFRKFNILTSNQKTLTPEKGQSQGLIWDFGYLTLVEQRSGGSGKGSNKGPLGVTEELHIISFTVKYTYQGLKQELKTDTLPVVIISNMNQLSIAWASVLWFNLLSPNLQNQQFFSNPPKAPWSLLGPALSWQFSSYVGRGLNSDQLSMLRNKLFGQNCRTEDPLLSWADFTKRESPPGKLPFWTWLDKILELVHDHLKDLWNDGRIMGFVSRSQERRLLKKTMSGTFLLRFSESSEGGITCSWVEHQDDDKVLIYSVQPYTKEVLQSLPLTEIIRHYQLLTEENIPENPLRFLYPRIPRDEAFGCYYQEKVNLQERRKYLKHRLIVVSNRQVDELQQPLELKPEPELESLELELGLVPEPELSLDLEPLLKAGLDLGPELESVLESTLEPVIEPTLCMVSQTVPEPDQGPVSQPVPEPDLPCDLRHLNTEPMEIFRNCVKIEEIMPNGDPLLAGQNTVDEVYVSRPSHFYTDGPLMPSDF
STAT3, sequence (P40763 2-770 limits assumed): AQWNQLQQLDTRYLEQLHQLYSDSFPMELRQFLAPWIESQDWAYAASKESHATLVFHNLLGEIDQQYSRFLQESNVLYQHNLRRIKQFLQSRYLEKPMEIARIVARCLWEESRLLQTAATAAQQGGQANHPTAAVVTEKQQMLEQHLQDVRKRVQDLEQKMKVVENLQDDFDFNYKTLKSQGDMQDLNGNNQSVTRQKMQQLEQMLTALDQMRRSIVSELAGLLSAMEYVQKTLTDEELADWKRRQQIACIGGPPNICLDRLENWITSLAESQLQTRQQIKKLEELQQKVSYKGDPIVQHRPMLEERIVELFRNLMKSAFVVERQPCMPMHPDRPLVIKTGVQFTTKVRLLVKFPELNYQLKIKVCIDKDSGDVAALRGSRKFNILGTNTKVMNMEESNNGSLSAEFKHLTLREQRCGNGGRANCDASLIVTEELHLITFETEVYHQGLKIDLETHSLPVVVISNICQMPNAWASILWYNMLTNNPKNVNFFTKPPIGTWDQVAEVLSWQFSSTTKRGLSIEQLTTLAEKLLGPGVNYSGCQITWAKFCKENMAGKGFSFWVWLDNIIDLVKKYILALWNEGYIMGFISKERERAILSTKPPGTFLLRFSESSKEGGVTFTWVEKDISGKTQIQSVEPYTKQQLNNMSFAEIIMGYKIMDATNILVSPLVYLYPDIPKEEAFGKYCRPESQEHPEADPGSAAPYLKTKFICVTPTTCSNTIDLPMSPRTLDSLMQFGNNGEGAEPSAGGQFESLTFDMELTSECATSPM
T1 sequence (P23458 whole entry): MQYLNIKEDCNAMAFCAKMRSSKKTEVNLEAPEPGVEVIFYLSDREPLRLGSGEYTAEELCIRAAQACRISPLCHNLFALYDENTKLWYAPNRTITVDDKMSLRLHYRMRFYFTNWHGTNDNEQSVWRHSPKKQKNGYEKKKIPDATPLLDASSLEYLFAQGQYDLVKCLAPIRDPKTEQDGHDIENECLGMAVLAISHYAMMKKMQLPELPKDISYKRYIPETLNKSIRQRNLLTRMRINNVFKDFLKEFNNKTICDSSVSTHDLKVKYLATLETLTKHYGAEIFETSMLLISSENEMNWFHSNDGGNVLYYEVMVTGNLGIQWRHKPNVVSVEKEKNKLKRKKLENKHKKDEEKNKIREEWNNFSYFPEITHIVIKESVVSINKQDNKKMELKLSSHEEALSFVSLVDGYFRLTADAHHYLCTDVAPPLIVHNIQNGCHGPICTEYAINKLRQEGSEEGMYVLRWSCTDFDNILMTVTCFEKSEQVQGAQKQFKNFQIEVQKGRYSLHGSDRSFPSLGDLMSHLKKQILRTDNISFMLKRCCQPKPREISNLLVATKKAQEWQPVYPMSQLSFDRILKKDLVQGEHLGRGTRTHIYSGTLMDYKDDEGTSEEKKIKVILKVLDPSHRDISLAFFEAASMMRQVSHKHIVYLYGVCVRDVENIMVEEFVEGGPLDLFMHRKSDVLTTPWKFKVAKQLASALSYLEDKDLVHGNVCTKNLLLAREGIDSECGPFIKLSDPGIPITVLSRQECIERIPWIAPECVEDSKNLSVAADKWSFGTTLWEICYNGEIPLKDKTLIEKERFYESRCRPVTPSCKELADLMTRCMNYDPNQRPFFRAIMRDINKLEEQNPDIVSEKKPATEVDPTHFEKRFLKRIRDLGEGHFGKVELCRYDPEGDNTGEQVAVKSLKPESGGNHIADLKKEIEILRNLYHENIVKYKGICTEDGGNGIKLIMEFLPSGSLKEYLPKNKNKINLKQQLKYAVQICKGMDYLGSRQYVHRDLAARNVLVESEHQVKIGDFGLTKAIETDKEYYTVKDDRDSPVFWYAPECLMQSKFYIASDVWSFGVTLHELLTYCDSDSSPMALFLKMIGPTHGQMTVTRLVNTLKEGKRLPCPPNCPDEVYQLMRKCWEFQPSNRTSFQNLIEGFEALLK

B1: CXCR4 (receptor, human, UniProt P61073 1-352, looked up)
chain: MEGISIYTSDNYTEEMGSGDYDSMKEPCFREENANFNKIFLPTIYSIIFLTGIVGNGLVILVMGYQKKLRSMTDKYRLHLSVADLLFVITLPFWAVDAVANWYFGNFLCKAVHVIYTVNLYSSVLILAFISLDRYLAIVHATNSQRPRKLLAEKVVYVGVWIPALLLTIPDFIFANVSEADDRYICDRFYPNDLWVVVFQFQHIMVGLILPGIVILSCYCIIISKLSHSKGHQKRKALKTTVILILAFFACWLPYYIGISIDSFILLEIIKQGCEFENTVHKWISITEALAFFHCCLNPILYAFLGAKFKTSAQHALTSVSRGSSLKILSKGKRGGHSSVSTESESSSFHSS
notes: whole, on cells; Endogenous receptor of IM-9 cells: on the cell surface in flow cytometry, immunoprecipitated from digitonin lysates in the co-immunoprecipitations; also called CXCR4 receptor; the CXCR4
On to B1, for which the binding result is given as “binds” in assay [1]; “binds” in assay [2]; “binds” in assay [3]; “binds” in assay [4]; “no binding” in assay [5]; “no binding” in assay [6].
